Results taken from the supplement of paper PMC5998384.

How the values were obtained:
HeLa Kyoto [1] = assay: solubility change mitosis vs G1/S (difference of NP-40 vs SDS log2 ratios) (log2 ratio difference); higher = more soluble in mitosis
HeLa Kyoto [2] = assay: solubility in G1/S (NP-40 vs SDS abundance) (log2 ratio); higher = more soluble; settings: cell cycle stage: G1/S
HeLa Kyoto [3] = assay: melting temperature (median over replicates), in situ; higher = more thermally stable
HeLa Kyoto [4] = assay: thermal stability score vs G1/S (z-score of summed log2 fold changes over temperatures); higher = more thermally stable than in G1/S
[5] = cell cycle stage: early G1 (4.5 h after nocodazole release)
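Throughout, for melting temperature (median over replicates), in situ: HeLa Kyoto cells synchronized by double thymidine or nocodazole block, proteins quantified by TMT10plex mass spectrometry, three independent biological replicates.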
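Throughout, for solubility change mitosis vs G1/S (difference of NP-40 vs SDS log2 ratios): synchronized HeLa Kyoto cells (double thymidine block for G1/S, nocodazole release for mitosis), protein amounts in NP-40 versus SDS lysates quantified by mass spectrometry, three biological replicates.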
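Throughout, for solubility in G1/S (NP-40 vs SDS abundance): HeLa Kyoto cells arrested at G1/S by double thymidine block, proteins quantified by TMT10plex mass spectrometry in mild NP-40 versus SDS extracts, three biological replicates.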
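Throughout, for thermal stability score vs G1/S (z-score of summed log2 fold changes over temperatures): synchronized HeLa Kyoto cells, proteins quantified by TMT10plex mass spectrometry, three biological replicates, mitosis taken 0.5 h after nocodazole release, G1/S directly after double thymidine block.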

Row | Sequence | solubility change mitosis (log2) (HeLa Kyoto [1]) | solubility in G1/S (log2) (HeLa Kyoto [2]) | melting temperature (HeLa Kyoto [3]; cell cycle stage: G1/S) | melting temperature (HeLa Kyoto [3]; cell cycle stage: mitosis) | thermal stability score (HeLa Kyoto [4]; [5]) | thermal stability score (HeLa Kyoto [4]; cell cycle stage: mitosis)
1 | MADSKEGVLPLTAASTAPISFGFTRTSARRRLADSGDGAGPSPEEKDFLKTVEGRELQSVKPQEAPKELVIPLIQNGHRRQPPARPPGPSTDTGALADGVVSQAVKELIAESKKSLEERENAGVDPTLAIPMIQKGCTPSGEGADSEPRAETVPEEANYEAVPVEAYGLAMLRGMGWKPGEGIGRTFNQVVKPRVNSLRPKGLGLGANLTEAQALTPTGPSRMPRPDEEQEKDKEDQPQGLVPGGAVVVLSGPHRGLYGKVEGLDPDNVRAMVRLAVGSRVVTVSEYYLRPVSQQEFDKNTLDLRQQNGTASSRKTLWNQELYIQQDNSERKRKHLPDRQDGPAAKSEKAAPRSQHWLHRDLRVRFVDNMYKGGQYYNTKMIIEDVLSPDTCVCRTDEGRVLEGLREDMLETLVPKAEGDRVMVVLGPQTGRVGHLLSRDRARSRALVQLPRENQVVELHYDAICQYMGPSDTDDD [GPKOW] | -0.0336 | 0.393 | 48.8 °C | 49.8 °C | 0.906 | 2.23
2 | MADTDLFMECEEEELEPWQKISDVIEDSVVEDYNSVDKTTTVSVSQQPVSAPVPIAAHASVAGHLSTSTTVSSSGAQNSDSTKKTLVTLIANNNAGNPLVQQGGQPLILTQNPAPGLGTMVTQPVLRPVQVMQNANHVTSSPVASQPIFITTQGFPVRNVRPVQNAMNQVGIVLNVQQGQTVRPITLVPAPGTQFVKPTVGVPQVFSQMTPVRPGSTMPVRPTTNTFTTVIPATLTIRSTVPQSQSQQTKSTPSTSTTPTATQPTSLGQLAVQSPGQSNQTTNPKLAPSFPSPPAVSIASFVTVKRPGVTGENSNEVAKLVNTLNTIPSLGQSPGPVVVSNNSSAHGSQRTSGPESSMKVTSSIPVFDLQDGGRKICPRCNAQFRVTEALRGHMCYCCPEMVEYQKKGKSLDSEPSVPSAAKPPSPEKTAPVASTPSSTPIPALSPPTKVPEPNENVGDAVQTKLIMLVDDFYYGRDGGKVAQLTNFPKVATSFRCPHCTKRLKNNIRFMNHMKHHVELDQQNGEVDGHTICQHCYRQFSTPFQLQCHLENVHSPYESTTKCKICEWAFESEPLFLQHMKDTHKPGEMPYVCQVCQYRSSLYSEVDVHFRMIHEDTRHLLCPYCLKVFKNGNAFQQHYMRHQKRNVYHCNKCRLQFLFAKDKIEHKLQHHKTFRKPKQLEGLKPGTKVTIRASRGQPRTVPVSSNDTPPSALQEAAPLTSSMDPLPVFLYPPVQRSIQKRAVRKMSVMGRQTCLECSFEIPDFPNHFPTYVHCSLCRYSTCCSRAYANHMINNHVPRKSPKYLALFKNSVSGIKLACTSCTFVTSVGDAMAKHLVFNPSHRSSSILPRGLTWIAHSRHGQTRDRVHDRNVKNMYPPPSFPTNKAATVKSAGATPAEPEELLTPLAPALPSPASTATPPPTPTHPQALALPPLATEGAECLNVDDQDEGSPVTQEPELASGGGGSGGVGKKEQLSVKKLRVVLFALCCNTEQAAEHFRNPQRRIRRWLRRFQASQGENLEGKYLSFEAEEKLAEWVLTQREQQLPVNEETLFQKATKIGRSLEGGFKISYEWAVRFMLRHHLTPHARRAVAHTLPKDVAENAGLFIDFVQRQIHNQDLPLSMIVAIDEISLFLDTEVLSSDDRKENALQTVGTGEPWCDVVLAILADGTVLPTLVFYRGQMDQPANMPDSILLEAKESGYSDDEIMELWSTRVWQKHTACQRSKGMLVMDCHRTHLSEEVLAMLSASSTLPAVVPAGCSSKIQPLDVCIKRTVKNFLHKKWKEQAREMADTACDSDVLLQLVLVWLGEVLGVIGDCPELVQRSFLVASVLPGPDGNINSPTRNADMQEELIASLEEQLKLSGEHSESSTPRPRSSPEETIEPESLHQLFEGESETESFYGFEEADLDLMEI [POGZ] | 0.341 | -0.704 | – | 49.5 °C | 1.1 | 2.58
3 | MADTLPSEFDVIVIGTGLPESIIAAACSRSGRRVLHVDSRSYYGGNWASFSFSGLLSWLKEYQENSDIVSDSPVWQDQILENEEAIALSRKDKTIQHVEVFCYASQDLHEDVEEAGALQKNHALVTSANSTEAADSAFLPTEDESLSTMSCEMLTEQTPSSDPENALEVNGAEVTGEKENHCDDKTCVPSTSAEDMSENVPIAEDTTEQPKKNRITYSQIIKEGRRFNIDLVSKLLYSRGLLIDLLIKSNVSRYAEFKNITRILAFREGRVEQVPCSRADVFNSKQLTMVEKRMLMKFLTFCMEYEKYPDEYKGYEEITFYEYLKTQKLTPNLQYIVMHSIAMTSETASSTIDGLKATKNFLHCLGRYGNTPFLFPLYGQGELPQCFCRMCAVFGGIYCLRHSVQCLVVDKESRKCKAIIDQFGQRIISEHFLVEDSYFPENMCSRVQYRQISRAVLITDRSVLKTDSDQQISILTVPAEEPGTFAVRVIELCSSTMTCMKGTYLVHLTCTSSKTAREDLESVVQKLFVPYTEMEIENEQVEKPRILWALYFNMRDSSDISRSCYNDLPSNVYVCSGPDCGLGNDNAVKQAETLFQEICPNEDFCPPPPNPEDIILDGDSLQPEASESSAIPEANSETFKESTNLGNLEESSE [CHM] | -0.191 | -0.115 | 52.9 °C | 53.1 °C | -0.484 | -1.2
4 | MAEAAAAAGGTGLGAGASYGSAADRDRDPDPDRAGRRLRVLSGHLLGRPREALSTNECKARRAASAATAAPTATPAAQESGTIPKKRQEVMKWNGWGYNDSKFIFNKKGQIELTGKRYPLSGMGLPTFKEWIQNTLGVNVEHKTTSKASLNPSDTPPSVVNEDFLHDLKETNISYSQEADDRVFRAHGHCLHEIFLLREGMFERIPDIVLWPTCHDDVVKIVNLACKYNLCIIPIGGGTSVSYGLMCPADETRTIISLDTSQMNRILWVDENNLTAHVEAGITGQELERQLKESGYCTGHEPDSLEFSTVGGWVSTRASGMKKNIYGNIEDLVVHIKMVTPRGIIEKSCQGPRMSTGPDIHHFIMGSEGTLGVITEATIKIRPVPEYQKYGSVAFPNFEQGVACLREIAKQRCAPASIRLMDNKQFQFGHALKPQVSSIFTSFLDGLKKFYITKFKGFDPNQLSVATLLFEGDREKVLQHEKQVYDIAAKFGGLAAGEDNGQRGYLLTYVIAYIRDLALEYYVLGESFETSAPWDRVVDLCRNVKERITRECKEKGVQFAPFSTCRVTQTYDAGACIYFYFAFNYRGISDPLTVFEQTEAAAREEILANGGSLSHHHGVGKLRKQWLKESISDVGFGMLKSVKEYVDPNNIFGNRNLL [AGPS] | -0.139 | -0.0393 | 52.8 °C | 52.9 °C | 0.703 | 1.37
